Assay [1] concerns the target recombinant von Willebrand Factor A1 domain (amino acids 1277-1453 of human vWF) (human) (UniProt P04275). Briefly: fluorescence anisotropy; particle-bound dimeric polypeptide titrated against 150 nM vWF A1-AlexaFluor 488.
Assay [2] deals with T1, human von Willebrand Factor of human blood plasma (human, UniProt P04275 764-2813).
T1 construct: mature; Native plasma protein in ELISA samples; also called vWF; plasma vWF
Briefly: sandwich ELISA: polypeptide captured on anti-CD42b, plasma added, detection with polyclonal rabbit anti-human vWF-HRP. The source says: FIG. 4A is a cartoon of the enzyme-linked immunosorbent assay (ELISA) used to generate the data in FIG. 4B-4D. A solid support was coated with anti-glycoprotein Ibα antibody (anti-CD42b), which was used to immobilize recombinant polypeptide comprising a modified extracellular domain of platelet glycoprotein Ibα (CD42b; GPIbα; GP1b constructs). The solid support was then contacted with human blood plasma, von Willebrand Factor calibrators, or von Willebrand Factor controls. The solid support was then contacted with a polyclonal rabbit anti-human von Willebrand Factor antibody to which horseradish peroxidase (HRP) was conjugated. The composition was then contacted with a substrate capable of being converted into a product by HRP with a strong absorbance at 450 nm, and absorbance was measured.
Enzyme immunosorbent assays (ELISA) were used to determine that recombinant polypeptides comprising the G233T (SEQ ID NO: 21), D235V (SEQ ID NO: 30), and K237V (SEQ ID NO: 31) mutations are capable of detecting qualitative differences in vWF binding affinity. […] Briefly, the wells of a multi-well plate were coated with an anti-CD42b antibody, which specifically binds the modified extracellular domain of GPIbα of the recombinant polypeptides and was used to indirectly cross-link the recombinant polypeptides to the multi-well plate (i.e., the solid support). Various control samples, standards, and serial dilutions thereof were added to different wells of the multi-well plate including plasma samples associated with type 1, type 2B, and type 3 von Willebrand Disease, control samples of pooled human blood plasma, control samples of human blood plasma known not to have von Willebrand Disease, a 2× serial dilution of a reference standard of pooled human plasma from no dilution to 16-fold dilution, and goat blood serum as a negative control. […] Bound vWF was quantified by monitoring the conversion of a horseradish peroxidase substrate into product by absorption spectroscopy at 450 nm.

The target in assay [3] is recombinant von Willebrand Factor A1 domain (amino acids 1277-1453 of human vWF) (human) (UniProt P04275). Kind of assay: SPR (Biacore); vWF A1 domain on CM5 chip, soluble polypeptide; Kd from on- and off-rates; SPR (Biacore), vWF A1 domain on CM5 chip.
Sequence of recombinant von Willebrand Factor A1 domain (amino acids 1277-1453 of human vWF) (human) (P04275 1277-1453 limits assumed, form in doubt): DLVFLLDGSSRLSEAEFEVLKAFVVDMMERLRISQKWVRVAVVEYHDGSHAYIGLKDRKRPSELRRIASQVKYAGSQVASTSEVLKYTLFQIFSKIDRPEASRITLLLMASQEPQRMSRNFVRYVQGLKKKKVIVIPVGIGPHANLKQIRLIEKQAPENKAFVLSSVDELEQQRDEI

Here are results for 4 molecules from patent US20240279312A1 (Hoffmann-La Roche, published 2024).

“And” between values parts separate entries of the source, which are not always exact repeats. Equal entries are not always repeated.

T1 sequence (P04275 764-2813 limits assumed): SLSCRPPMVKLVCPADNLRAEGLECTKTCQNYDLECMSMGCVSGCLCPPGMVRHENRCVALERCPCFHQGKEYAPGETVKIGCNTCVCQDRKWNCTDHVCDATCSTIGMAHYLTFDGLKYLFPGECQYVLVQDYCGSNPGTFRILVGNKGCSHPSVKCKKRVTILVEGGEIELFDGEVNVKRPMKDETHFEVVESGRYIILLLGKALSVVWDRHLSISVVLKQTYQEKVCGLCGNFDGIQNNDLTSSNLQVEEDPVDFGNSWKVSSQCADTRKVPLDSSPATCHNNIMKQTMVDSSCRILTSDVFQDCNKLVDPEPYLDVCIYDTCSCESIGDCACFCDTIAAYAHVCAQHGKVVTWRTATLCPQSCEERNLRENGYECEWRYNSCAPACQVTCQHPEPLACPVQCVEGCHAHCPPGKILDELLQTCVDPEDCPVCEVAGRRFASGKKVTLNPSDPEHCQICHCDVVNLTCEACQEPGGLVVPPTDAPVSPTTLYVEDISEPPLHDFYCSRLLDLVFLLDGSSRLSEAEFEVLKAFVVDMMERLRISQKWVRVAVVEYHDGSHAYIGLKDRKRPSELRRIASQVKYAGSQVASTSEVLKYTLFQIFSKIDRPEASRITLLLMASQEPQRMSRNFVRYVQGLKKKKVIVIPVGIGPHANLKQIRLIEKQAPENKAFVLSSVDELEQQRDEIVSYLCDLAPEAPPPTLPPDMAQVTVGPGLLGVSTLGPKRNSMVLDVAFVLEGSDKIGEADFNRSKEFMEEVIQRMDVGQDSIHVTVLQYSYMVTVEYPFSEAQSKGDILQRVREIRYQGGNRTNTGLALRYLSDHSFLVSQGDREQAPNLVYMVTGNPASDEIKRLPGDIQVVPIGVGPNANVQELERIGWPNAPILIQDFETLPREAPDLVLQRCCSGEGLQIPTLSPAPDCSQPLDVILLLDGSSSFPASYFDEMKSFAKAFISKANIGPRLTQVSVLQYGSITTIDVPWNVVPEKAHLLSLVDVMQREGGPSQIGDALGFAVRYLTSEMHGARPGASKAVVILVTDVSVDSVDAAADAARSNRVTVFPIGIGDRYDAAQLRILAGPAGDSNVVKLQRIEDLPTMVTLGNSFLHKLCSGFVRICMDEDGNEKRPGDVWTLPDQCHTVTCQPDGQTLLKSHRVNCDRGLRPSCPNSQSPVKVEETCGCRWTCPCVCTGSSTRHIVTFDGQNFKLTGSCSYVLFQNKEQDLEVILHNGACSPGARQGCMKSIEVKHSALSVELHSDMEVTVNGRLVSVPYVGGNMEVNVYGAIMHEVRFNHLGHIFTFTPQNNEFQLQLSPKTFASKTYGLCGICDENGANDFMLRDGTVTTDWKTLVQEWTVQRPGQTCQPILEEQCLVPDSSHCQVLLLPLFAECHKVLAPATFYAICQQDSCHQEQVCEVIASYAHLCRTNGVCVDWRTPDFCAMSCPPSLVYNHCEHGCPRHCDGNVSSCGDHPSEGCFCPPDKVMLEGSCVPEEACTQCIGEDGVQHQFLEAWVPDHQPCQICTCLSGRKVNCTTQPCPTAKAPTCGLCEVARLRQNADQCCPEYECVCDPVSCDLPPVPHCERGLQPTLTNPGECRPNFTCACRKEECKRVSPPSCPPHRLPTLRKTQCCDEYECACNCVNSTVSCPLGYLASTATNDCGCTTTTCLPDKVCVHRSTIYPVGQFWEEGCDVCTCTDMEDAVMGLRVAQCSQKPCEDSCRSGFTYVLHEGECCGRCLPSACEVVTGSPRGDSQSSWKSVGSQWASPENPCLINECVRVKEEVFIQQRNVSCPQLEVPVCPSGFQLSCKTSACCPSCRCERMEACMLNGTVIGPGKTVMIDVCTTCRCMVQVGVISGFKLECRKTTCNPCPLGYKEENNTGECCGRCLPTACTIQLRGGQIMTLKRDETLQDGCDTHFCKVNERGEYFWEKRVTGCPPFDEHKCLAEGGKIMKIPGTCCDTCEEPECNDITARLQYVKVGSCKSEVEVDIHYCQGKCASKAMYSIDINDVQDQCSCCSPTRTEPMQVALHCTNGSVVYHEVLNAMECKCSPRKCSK

As to “dimeric polypeptide of SEQ ID NO: 37 (WT): GPIbα extracellular domain without gain- or loss-of-function mutation, murine Fc dimerization domain (Fc fusion)”, in assay [1], the dissociation constant Kd amounted to 1250 nM.

B1: dimeric polypeptide of SEQ ID NO: 21: GPIbα extracellular domain with C65S and G233T, murine IgG1 Fc dimerization domain, 8-His tag (Fc fusion)
chain: HPICEVSKVASHLEVNCDKRNLTALPPDLPKDTTILHLSENLLYTFSLATLMPYTRLTQLNLDRSELTKLQVDGTLPVLGTLDLSHNQLQSLPLLGQTLPALTVLDVSFNRLTSLPLGALRGLGELQELYLKGNELKTLPPGLLTPTPKLEKLSLANNNLTELPAGLLNGLENLDTLLLQENSLYTIPKGFFGSHLLPFAFLHGNPWLCNCEILYFRRWLQDNAENVYVWKQTVDVKAMTSNVASVQCDNSDKFPVYKYPGKGCPTLGDEGDTDLYDYYPEEDTEGDKVRVPRDCGCKPCICTVPEVSSVFIFPPKPKDVLTITLTPKVTCVVVDISKDDPEVQFSWFVDDVEVHTAQTQPREEQFNSTFRSVSELPIMHQDWLNGKEFKCRVNSAAFPAPIEKTISKTKGRPKAPQVYTIPPPKEQMAKDKVSLTCMITDFFPEDITVEWQWNGQPAENYKNTQPIMDTDGSYFVYSKLNVQKSNWEAGNTFTCSVLHEGLHNHHTEKSLSHSPGIGHHHHHHHH
notes: On particles in fluorescence anisotropy, soluble in SPR, captured by anti-CD42b in ELISA; also called G233T mutant; G233T recombinant polypeptide
Turning to B1, in assay [2], the binding result was “binds”. For the same molecule, the dissociation constant Kd was 67 nM and < 500 nM in assay [1]; 58 nM in assay [3].

B2: dimeric polypeptide of SEQ ID NO: 30: GPIbα extracellular domain with C65S and D235V, murine Fc dimerization domain (Fc fusion)
chain: HPICEVSKVASHLEVNCDKRNLTALPPDLPKDTTILHLSENLLYTFSLATLMPYTRLTQLNLDRSELTKLQVDGTLPVLGTLDLSHNQLQSLPLLGQTLPALTVLDVSFNRLTSLPLGALRGLGELQELYLKGNELKTLPPGLLTPTPKLEKLSLANNNLTELPAGLLNGLENLDTLLLQENSLYTIPKGFFGSHLLPFAFLHGNPWLCNCEILYFRRWLQDNAENVYVWKQGVVVKAMTSNVASVQCDNSDKFPVYKYPGKGCPTLGDEGDTDLYDYYPEEDTEGDKVRVPRDCGCKPCICTVPEVSSVFIFPPKPKDVLTITLTPKVTCVVVDISKDDPEVQFSWFVDDVEVHTAQTQPREEQFNSTFRSVSELPIMHQDWLNGKEFKCRVNSAAFPAPIEKTISKTKGRPKAPQVYTIPPPKEQMAKDKVSLTCMITDFFPEDITVEWQWNGQPAENYKNTQPIMDTDGSYFVYSKLNVQKSNWEAGNTFTCSVLHEGLHNHHTEKSLSHSPGIGHHHHHHHH
notes: also called D235V mutant
Consider B2, for which, in assay [2], the binding result is given as “binds”. In addition, the Kd in assay [1] is < 500 nM and 250 nM.

B3: dimeric polypeptide of SEQ ID NO: 31: GPIbα extracellular domain with C65S and K237V, murine Fc dimerization domain (Fc fusion)
chain: HPICEVSKVASHLEVNCDKRNLTALPPDLPKDTTILHLSENLLYTFSLATLMPYTRLTQLNLDRSELTKLQVDGTLPVLGTLDLSHNQLQSLPLLGQTLPALTVLDVSFNRLTSLPLGALRGLGELQELYLKGNELKTLPPGLLTPTPKLEKLSLANNNLTELPAGLLNGLENLDTLLLQENSLYTIPKGFFGSHLLPFAFLHGNPWLCNCEILYFRRWLQDNAENVYVWKQGVDVVAMTSNVASVQCDNSDKFPVYKYPGKGCPTLGDEGDTDLYDYYPEEDTEGDKVRVPRDCGCKPCICTVPEVSSVFIFPPKPKDVLTITLTPKVTCVVVDISKDDPEVQFSWFVDDVEVHTAQTQPREEQFNSTFRSVSELPIMHQDWLNGKEFKCRVNSAAFPAPIEKTISKTKGRPKAPQVYTIPPPKEQMAKDKVSLTCMITDFFPEDITVEWQWNGQPAENYKNTQPIMDTDGSYFVYSKLNVQKSNWEAGNTFTCSVLHEGLHNHHTEKSLSHSPGIGHHHHHHHH
notes: also called K237V mutant
Turning to B3, the binding result in assay [2] is “binds”. Also, the equilibrium dissociation constant (Kd) in assay [1] is < 500 nM and 300 nM.
